Measured values: the Human Domainome abundance scans (Beltran et al. 2025)
± gives the uncertainty stated by the source.

B1: SWI/SNF complex subunit SMARCC2, residues 599 to 641; numbered along this chain, Q8TAQ2 (parent)
chain: REWTEQETLLLLEALEMYKDDWNKVSEHVGSRTQDECILHFLR

Variants of: B1
Assay: abundance fitness (aPCA) (normalised: wild type 0, dead -1); higher = more abundant; growth selection in yeast, the domain comes from the species named
Details: Homo sapiens
REWTEQETLLLLEALEMYKDHWNKVSEHVGSRTQDECILHFLR [D21H] showed an abundance fitness of -0.408 ± 0.084.
Variant REWTEQETLLLLEALEMYKDKWNKVSEHVGSRTQDECILHFLR [D21K] has an abundance fitness of -0.065 ± 0.18.
In the case of REWTEQETLLLLEALEMYKDWWNKVSEHVGSRTQDECILHFLR [D21W], the abundance fitness is reported as -0.493 ± 0.27.
Work on REWTEQETLLLLEALEMYKDGWNKVSEHVGSRTQDECILHFLR [D21G] yielded an abundance fitness of -0.315 ± 0.1.
For REWTEQETLLLLEALEMYKDSWNKVSEHVGSRTQDECILHFLR [D21S], the abundance fitness was -0.057 ± 0.064.
With REWTEQETLLLLEALEMYKDVWNKVSEHVGSRTQDECILHFLR [D21V] the abundance fitness was -0.496 ± 0.09.
REWTEQETLLLLEALEMYKDMWNKVSEHVGSRTQDECILHFLR [D21M] showed an abundance fitness of -0.747 ± 0.3.
REWTEQETLLLLEALEMYKDQWNKVSEHVGSRTQDECILHFLR [D21Q] gave an abundance fitness of -0.122 ± 0.086.
Work on REWTEQETLLLLEALEMYKDRWNKVSEHVGSRTQDECILHFLR [D21R] yielded an abundance fitness of -0.192 ± 0.077.
REWTEQETLLLLEALEMYKDPWNKVSEHVGSRTQDECILHFLR [D21P] gave an abundance fitness of -0.919 ± 0.16.
Variant REWTEQETLLLLEALEMYKDYWNKVSEHVGSRTQDECILHFLR [D21Y] has an abundance fitness of -0.541 ± 0.33.
In the case of REWTEQETLLLLEALEMYKDEWNKVSEHVGSRTQDECILHFLR [D21E], the abundance fitness is reported as -0.158 ± 0.071.
Variant REWTEQETLLLLEALEMYKDAWNKVSEHVGSRTQDECILHFLR [D21A] has an abundance fitness of -0.172 ± 0.095.
For REWTEQETLLLLEALEMYKDNWNKVSEHVGSRTQDECILHFLR [D21N], the abundance fitness was -0.314 ± 0.43.
With REWTEQETLLLLEALEMYKDTWNKVSEHVGSRTQDECILHFLR [D21T] the abundance fitness was -0.336 ± 0.15.
For REWTEQETLLLLEALEMYKDDWKKVSEHVGSRTQDECILHFLR [N23K], the abundance fitness was 0.037 ± 0.072.
Variant REWTEQETLLLLEALEMYKDDWCKVSEHVGSRTQDECILHFLR [N23C] has an abundance fitness of 0.123 ± 0.068.
In the case of REWTEQETLLLLEALEMYKDDWFKVSEHVGSRTQDECILHFLR [N23F], the abundance fitness is reported as 0.046 ± 0.084.
REWTEQETLLLLEALEMYKDDWLKVSEHVGSRTQDECILHFLR [N23L] showed an abundance fitness of 0.026 ± 0.067.
REWTEQETLLLLEALEMYKDDWGKVSEHVGSRTQDECILHFLR [N23G] showed an abundance fitness of 0.112 ± 0.059.
Work on REWTEQETLLLLEALEMYKDDWPKVSEHVGSRTQDECILHFLR [N23P] yielded an abundance fitness of 0.17 ± 0.059.
Variant REWTEQETLLLLEALEMYKDDWWKVSEHVGSRTQDECILHFLR [N23W] has an abundance fitness of -0.131 ± 0.12.
In the case of REWTEQETLLLLEALEMYKDDWIKVSEHVGSRTQDECILHFLR [N23I], the abundance fitness is reported as -0.121 ± 0.14.
Variant REWTEQETLLLLEALEMYKDDWQKVSEHVGSRTQDECILHFLR [N23Q] has an abundance fitness of -0.081 ± 0.097.
With REWTEQETLLLLEALEMYKDDWMKVSEHVGSRTQDECILHFLR [N23M] the abundance fitness was 0.025 ± 0.13.
REWTEQETLLLLEALEMYKDDWAKVSEHVGSRTQDECILHFLR [N23A] showed an abundance fitness of 0.204 ± 0.064.
REWTEQETLLLLEALEMYKDDWRKVSEHVGSRTQDECILHFLR [N23R] showed an abundance fitness of 0.069 ± 0.056.
REWTEQETLLLLEALEMYKDDWSKVSEHVGSRTQDECILHFLR [N23S] showed an abundance fitness of 0.064 ± 0.065.
For REWTEQETLLLLEALEMYKDDWVKVSEHVGSRTQDECILHFLR [N23V], the abundance fitness was 0.059 ± 0.067.
Variant REWTEQETLLLLEALEMYKDDWYKVSEHVGSRTQDECILHFLR [N23Y] has an abundance fitness of -0.285 ± 0.086.
REWTEQETLLLLEALEMYKDDWTKVSEHVGSRTQDECILHFLR [N23T] showed an abundance fitness of 0.033 ± 0.069.
Work on REWTEQETLLLLEALEMYKDDWDKVSEHVGSRTQDECILHFLR [N23D] yielded an abundance fitness of 0.109 ± 0.11.
In the case of REWTEQETLLLLEALEMYKDDWEKVSEHVGSRTQDECILHFLR [N23E], the abundance fitness is reported as 0.091 ± 0.17.
In the case of REWTEQETLLLLEALEMYKDDWHKVSEHVGSRTQDECILHFLR [N23H], the abundance fitness is reported as -0.009 ± 0.077.
Work on REWTEQETLLLLEALEMYKDDKNKVSEHVGSRTQDECILHFLR [W22K] yielded an abundance fitness of -0.367 ± 0.15.
In the case of REWTEQETLLLLEALEMYKDDHNKVSEHVGSRTQDECILHFLR [W22H], the abundance fitness is reported as -0.231 ± 0.18.
In the case of REWTEQETLLLLEALEMYKDDYNKVSEHVGSRTQDECILHFLR [W22Y], the abundance fitness is reported as -0.115 ± 0.32.
Variant REWTEQETLLLLEALEMYKDDCNKVSEHVGSRTQDECILHFLR [W22C] has an abundance fitness of -0.792 ± 0.13.
For REWTEQETLLLLEALEMYKDDANKVSEHVGSRTQDECILHFLR [W22A], the abundance fitness was -0.791 ± 0.11.
REWTEQETLLLLEALEMYKDDRNKVSEHVGSRTQDECILHFLR [W22R] gave an abundance fitness of -0.833 ± 0.12.
Work on REWTEQETLLLLEALEMYKDDGNKVSEHVGSRTQDECILHFLR [W22G] yielded an abundance fitness of -0.615 ± 0.1.
For REWTEQETLLLLEALEMYKDDMNKVSEHVGSRTQDECILHFLR [W22M], the abundance fitness was -0.412 ± 0.11.
Work on REWTEQETLLLLEALEMYKDDINKVSEHVGSRTQDECILHFLR [W22I] yielded an abundance fitness of -0.535 ± 0.45.
REWTEQETLLLLEALEMYKDDTNKVSEHVGSRTQDECILHFLR [W22T] gave an abundance fitness of -0.433 ± 0.11.
Work on REWTEQETLLLLEALEMYKDDNNKVSEHVGSRTQDECILHFLR [W22N] yielded an abundance fitness of -0.759 ± 0.15.
REWTEQETLLLLEALEMYKDDDNKVSEHVGSRTQDECILHFLR [W22D] gave an abundance fitness of -0.339 ± 0.18.
Variant REWTEQETLLLLEALEMYKDDFNKVSEHVGSRTQDECILHFLR [W22F] has an abundance fitness of -0.389 ± 0.12.
In the case of REWTEQETLLLLEALEMYKDDVNKVSEHVGSRTQDECILHFLR [W22V], the abundance fitness is reported as -0.529 ± 0.086.
Work on REWTEQETLLLLEALEMYKDDSNKVSEHVGSRTQDECILHFLR [W22S] yielded an abundance fitness of -0.91 ± 0.17.
For REWTEQETLLLLEALEMYKDDQNKVSEHVGSRTQDECILHFLR [W22Q], the abundance fitness was -0.887 ± 0.24.
For REWTEQETLLLLEALEMYKDDWNVVSEHVGSRTQDECILHFLR [K24V], the abundance fitness was -0.389 ± 0.08.
In the case of REWTEQETLLLLEALEMYKDDWNTVSEHVGSRTQDECILHFLR [K24T], the abundance fitness is reported as -0.005 ± 0.065.
In the case of REWTEQETLLLLEALEMYKDDWNNVSEHVGSRTQDECILHFLR [K24N], the abundance fitness is reported as -0.501 ± 0.21.
REWTEQETLLLLEALEMYKDDWNHVSEHVGSRTQDECILHFLR [K24H] showed an abundance fitness of -0.139 ± 0.12.
Work on REWTEQETLLLLEALEMYKDDWNAVSEHVGSRTQDECILHFLR [K24A] yielded an abundance fitness of 0.124 ± 0.066.
For REWTEQETLLLLEALEMYKDDWNDVSEHVGSRTQDECILHFLR [K24D], the abundance fitness was -0.366 ± 0.12.
For REWTEQETLLLLEALEMYKDDWNCVSEHVGSRTQDECILHFLR [K24C], the abundance fitness was -0.148 ± 0.094.
With REWTEQETLLLLEALEMYKDDWNEVSEHVGSRTQDECILHFLR [K24E] the abundance fitness was 0.154 ± 0.098.
REWTEQETLLLLEALEMYKDDWNSVSEHVGSRTQDECILHFLR [K24S] showed an abundance fitness of -0.081 ± 0.063.
